Target: EsxE-EsxF heterodimer (Mycobacterium tuberculosis) (UniProt P9WNH8)
Assay: negative-stain electron microscopy

Substance: EsxE-EsxF heterodimer (from UniProt P9WNH8 1-90; P9WNH6 1-103) (complex)
- stoichiometry N: 5
